{
  "source": "patent US10704030B2",
  "about": "“P450-BM3 variants with improved activity” (Codexis, Inc., priority 2015, dated 2020)",
  "molecules": {"B1": {"name": "SEQ ID NO:16: P450-BM3 parental backbone from the commercially available MCYP panel (MCYP-0343; Codexis) (protein)", "chain": "MTIKEMPQPKTFGELKNLPLLNTDKPVQALMKIADELGEIFKFEAPGCVTRYLSSQRLIKEACDESRFDKNLSQALKFARDFLGDGLVTSWTHEINWKKAHNILLPSFSQQAMKGYHAMMVDIAVQLVQKWERLNADEHIEVSEDMTRLTLDTIGLCGFNYRFNSFYRDQPHPFIISMVRALDEVMNKLQRANPDDPAYDENKRQCQEDIKVMNDLVDKIIADRKARGEQSDDLLTQMLNGKDPETGEPLDDGNISYQIITFLIAGHETTSGLLSFALYFLVKNPHVLQKVAEEAARVLVDPVPSYKQVKQLKYVGMVLNEALRLWPTAPAFSLYAKEDTVLGGEYPLEKGDEVMVLIPQLHRDKTIWGDDVEEFRPERFENPSAIPQHAFKPFGNGQRACIGQQFALHEATLVLGMMLKHFDFEDHTNYELDIKETLTLKPEGFVVKAKSKKIPLGGIPSPSTEQSAKKVRKKAENAHNTPLLVLYGSNMGTAEGTARDLADIAMSKGFAPQVATLDSHAGNLPREGAVLIVTASYNGHPPDNAKQFVDWLDQASADEVKGVRYSVFGCGDKNWATTYQKVPAFIDETLAAKGAENIADRGEADASDDFEGTYEEWREHMWSDVAAYFNLDIENSEDNKSTLSLQFVDSAADMPLAKMHGAFSTNVVASKELQQPGSARSTRHLEIELPKEASYQEGDHLGVIPRNYEGIVNRVTARFGLDASQQIRLEAEEEKLAHLPLAKTVSVEELLQYVELQDPVTRTQLRAMAAKTVCPPHKVELEALLEKQAYKEQVLAKRLTMLELLEKYPACEMKFSEFIALLPSIRPRYYSISSSPRVDEKQASITVSVVSGEAWSGYGEYKGIASNYLAELQEGDTITCFISTPQSEFTLPKDPETPLIMVGPGTGVAPFRGFVQARKQLKEQGQSLGEAHLYFGCRSPHEDYLYQEELENAQSEGIITLHTAFSRMPNQPKTYVQHVMEQDGKKLIELLDQGAHFYICGDGSQMAPAVEATLMKSYADVHQVSEADARLWLQQLEEKGRYAKDVWAG", "modifications": "P450_BM3"}, "B2": {"name": "Variant 18: P450-BM3 variant of SEQ ID NO:16: K32R; C48S; Y52F; I95P; I176V; L216Y; D232H; E349K; M491A; N574T; E619D; D722S; A767T (protein)", "chain": "MTIKEMPQPKTFGELKNLPLLNTDKPVQALMRIADELGEIFKFEAPGSVTRFLSSQRLIKEACDESRFDKNLSQALKFARDFLGDGLVTSWTHEPNWKKAHNILLPSFSQQAMKGYHAMMVDIAVQLVQKWERLNADEHIEVSEDMTRLTLDTIGLCGFNYRFNSFYRDQPHPFIVSMVRALDEVMNKLQRANPDDPAYDENKRQCQEDIKVMNDYVDKIIADRKARGEQSHDLLTQMLNGKDPETGEPLDDGNISYQIITFLIAGHETTSGLLSFALYFLVKNPHVLQKVAEEAARVLVDPVPSYKQVKQLKYVGMVLNEALRLWPTAPAFSLYAKEDTVLGGEYPLKKGDEVMVLIPQLHRDKTIWGDDVEEFRPERFENPSAIPQHAFKPFGNGQRACIGQQFALHEATLVLGMMLKHFDFEDHTNYELDIKETLTLKPEGFVVKAKSKKIPLGGIPSPSTEQSAKKVRKKAENAHNTPLLVLYGSNAGTAEGTARDLADIAMSKGFAPQVATLDSHAGNLPREGAVLIVTASYNGHPPDNAKQFVDWLDQASADEVKGVRYSVFGCGDKTWATTYQKVPAFIDETLAAKGAENIADRGEADASDDFEGTYEEWRDHMWSDVAAYFNLDIENSEDNKSTLSLQFVDSAADMPLAKMHGAFSTNVVASKELQQPGSARSTRHLEIELPKEASYQEGDHLGVIPRNYEGIVNRVTARFGLSASQQIRLEAEEEKLAHLPLAKTVSVEELLQYVELQDPVTRTQLRTMAAKTVCPPHKVELEALLEKQAYKEQVLAKRLTMLELLEKYPACEMKFSEFIALLPSIRPRYYSISSSPRVDEKQASITVSVVSGEAWSGYGEYKGIASNYLAELQEGDTITCFISTPQSEFTLPKDPETPLIMVGPGTGVAPFRGFVQARKQLKEQGQSLGEAHLYFGCRSPHEDYLYQEELENAQSEGIITLHTAFSRMPNQPKTYVQHVMEQDGKKLIELLDQGAHFYICGDGSQMAPAVEATLMKSYADVHQVSEADARLWLQQLEEKGRYAKDVWAG", "modifications": "P450_BM3", "notes": "C48S; Y52F; I95P; I176V; L216Y; D232H; E349K; M491A; N574T; E619D; D722S; A767T"}, "B3": {"name": "Variant 19: P450-BM3 variant of SEQ ID NO:16: C48S; Y52F; I95P; Q111R; I176V; L216Y; D232H; P347T; M491A; N574T; D722S (protein)", "chain": "B2 chain with R32K, Q111R, P347T, K349E, D619E, T767A", "modifications": "P450_BM3", "notes": "Y52F; I95P; Q111R; I176V; L216Y; D232H; P347T; M491A; N574T; D722S"}},
  "type_in_all_cases": "biochemical",
  "key": {"[1]": {"assay": "Validation of generalist properties: oxidation of diclofenac by lyophilized P450-BM3 variant, UPLC-MS", "details": "[Diclofenac] = 1 mM; for TON: TON = [substrate]*% conversion/[P450]; for FIOPC (F12): fold improvement over parent MCYP-1.2-F12", "how_it_was_run": "(§1)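 Lyophilized lysate of E. coli-expressed P450-BM3 variant (stock standardized to 12 μM heme) was incubated 24 h at 30 °C with 1 or 2 mM substrate, 1.0 mM NADP+, 25 mM glucose, 0.5 mg/mL glucose dehydrogenase and 5% DMSO in 100 mM potassium phosphate. Acetonitrile-quenched samples were analyzed by UPLC-MS (positive ESI).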"}, "[2]": {"assay": "Validation of generalist properties: oxidation of loratadine by lyophilized P450-BM3 variant, UPLC-MS", "details": "[Loratadine] = 1 mM; for TON: TON = [substrate]*% conversion/[P450]", "how_it_was_run": "as §1"}, "[3]": {"assay": "Validation of generalist properties: oxidation of imatinib by lyophilized P450-BM3 variant, UPLC-MS", "details": "[Imatinib] = 1 mM; for TON: TON = [substrate]*% conversion/[P450]; for FIOPC (F12): fold improvement over parent MCYP-1.2-F12", "how_it_was_run": "as §1"}, "[4]": {"assay": "Validation of generalist properties: oxidation of gefitinib by lyophilized P450-BM3 variant, UPLC-MS", "details": "[Gefitinib] = 1 mM; for TON: TON = [substrate]*% conversion/[P450]; for FIOPC (F12): fold improvement over parent MCYP-1.2-F12", "how_it_was_run": "as §1"}},
  "note": "Positions count from the first letter of the chain named. Numbers in names are those of the source.",
  "data": [
    {"molecule": "B1", "values": [
      {"measurement": "% Conv.", "setting": "[1]", "result": "++++ (15.01-20.00)"},
      {"measurement": "TON", "setting": "[1]", "result": "‡‡‡‡ (10000-50000)"},
      {"measurement": "% Conv.", "setting": "[2]", "result": "+++ (10.01-15.00)"},
      {"measurement": "TON", "setting": "[2]", "result": "‡‡‡ (5001-10000)"},
      {"measurement": "% Conv.", "setting": "[3]", "result": "+ (0-5.00)"},
      {"measurement": "TON", "setting": "[3]", "result": "‡‡ (1001-5000)"},
      {"measurement": "% Conv.", "setting": "[4]", "result": "+ (0-5.00)"},
      {"measurement": "TON", "setting": "[4]", "result": "‡‡ (1001-5000)"}
    ]},
    {"molecule": "B2", "values": [
      {"measurement": "% Conv.", "setting": "[1]", "result": "++++ (15.01-20.00)"},
      {"measurement": "TON", "setting": "[1]", "result": "‡‡‡‡ (10000-50000)"},
      {"measurement": "FIOPC (F12)", "setting": "[1]", "result": "* (0.0-3.0)"},
      {"measurement": "% Conv.", "setting": "[2]", "result": "++ (5.01-10.00)"},
      {"measurement": "TON", "setting": "[2]", "result": "‡‡‡ (5001-10000)"},
      {"measurement": "FIOPC (F12)", "setting": "[2]; fold improvement over parent MCYP-1.2-F12", "result": "* (0.0-3.0)"},
      {"measurement": "% Conv.", "setting": "[3]", "result": "+++ (10.01-15.00)"},
      {"measurement": "TON", "setting": "[3]", "result": "‡‡‡ (5001-10000)"},
      {"measurement": "FIOPC (F12)", "setting": "[3]", "result": "** (3.01-5.0)"},
      {"measurement": "% Conv.", "setting": "[4]", "result": "++++ (15.01-20.00)"},
      {"measurement": "TON", "setting": "[4]", "result": "‡‡‡‡ (10000-50000)"},
      {"measurement": "FIOPC (F12)", "setting": "[4]", "result": "**** (10.01-15.00)"}
    ]},
    {"molecule": "B3", "values": [
      {"measurement": "% Conv.", "setting": "[1]", "result": "++++ (15.01-20.00)"},
      {"measurement": "TON", "setting": "[1]", "result": "‡‡‡‡ (10000-50000)"},
      {"measurement": "FIOPC (F12)", "setting": "[1]", "result": "* (0.0-3.0)"},
      {"measurement": "% Conv.", "setting": "[2]", "result": "+++ (10.01-15.00)"},
      {"measurement": "TON", "setting": "[2]", "result": "‡‡‡ (5001-10000)"},
      {"measurement": "FIOPC (F02)", "setting": "[2]; fold improvement over parent MCYP-P1.2-F02", "result": "* (0.0-3.0)"},
      {"measurement": "% Conv.", "setting": "[3]", "result": "+++ (10.01-15.00)"},
      {"measurement": "TON", "setting": "[3]", "result": "‡‡‡ (5001-10000)"},
      {"measurement": "FIOPC (F12)", "setting": "[3]", "result": "** (3.01-5.0)"},
      {"measurement": "% Conv.", "setting": "[4]", "result": "++++ (15.01-20.00)"},
      {"measurement": "TON", "setting": "[4]", "result": "‡‡‡‡ (10000-50000)"},
      {"measurement": "FIOPC (F12)", "setting": "[4]", "result": "**** (10.01-15.00)"}
    ]}
  ]
}
